Test results from PMC4265764 (2014).

Columns and labels:
[1] = target: T1, Green Fluorescent Protein (GFP) (UniProt P42212 1-238 = GFP, biotin on the avi-tag (in-vivo biotinylation)); assay: FP; PBS with 0.03% BSA
[2] = target: T1, Green Fluorescent Protein (GFP); assay: SPR
[3] = target: T1, Green Fluorescent Protein (GFP); assay: FP; PBS with 0.005% Tween-20
[4] = target: T1, Green Fluorescent Protein (GFP); assay: SPR; remark: listed apart in the source
[5] = target: superfolder GFP (sfGFP) (UniProt P42212 = GFP, biotin (in-vivo biotinylated, in the ELISA)); assay: FP
[6] = target: T1, Green Fluorescent Protein (GFP); assay: FP

Kd [1] [nM]	koff [2] [s⁻¹]	Kd [3] [nM]	Kd [4] [nM]	Kd [5] [nM]	Kd [6] [nM]	Binder
76	0.000797	< 5	1.1	96	–	DARPin 3G61 (designed binder) MRGSHHHHHHGSDLGKKLLEAARAGQDDEVRILMANGADVNALDEVGWTPLHLAAWGHLEIVEVLLKNGADVNAADIDGYTPLHLAAFSGHLEIVEVLLKYGADVNADDQAGFTPLHLAAIFGHLEIVEVLLKNGADVNAQDKFGKTAFDISIDNGNEDLAEILQKLN
–	0.000228	–	0.36	22	< 5	DARPin 3G124 (designed binder) DLGKKLLEAARAGQDDEVRILMANGADVNAADDVGVTPLHLAAQRGHLEIVEVLLKYGADVNAADLWGQTPLHLAATAGHLEIVEVLLKNGADVNARDNIGHTPLHLAAWAGHLEIVEVLLKYGADVNAQDKFGKTAFDISIDNGNEDLAEILQ
–	0.00022	–	–	5.3	< 5	DARPin 3G86.32 (designed binder) MRGSHHHHHHGSDLGKKLLEAARAGQDDEVRILMANGADVNALDRFGLTPLHLAAQRGHLEIVEVLLKCGADVNAADLWGQTPLHLAATAGHLEIVEVLLKYGADVNALDLIGKTPLHLTAIDGHLEIVEVLLKHGADVNAQDKFGKTAFDISIDNGNEDLAEILQKLN
–	0.000369	–	0.32	29	< 5	DARPin 3G86.1 (designed binder) MRGSHHHHHHGSDLGKKLLEAARAGQDDEVRILMANGADVNALDRFGLTPLHLAAQRGHLEIVEVLLKCGADVNAADLWGQTPLHLAATAGHLEIVEVLLKNGADVNARDNIGHTPLHLAAWAGHLEIVEVLLKHGADVNAQDKFGKTAFDISIDNGNEDLAEILQKLN
